According to the supplement of paper PMC7125110:
± gives the standard error. Fewer inactive variants are shown than the library holds.

B1: glmS ribozyme (parent)
chain: AUAAAAGCGCCAGAACUACAGAAAUGUAGUUGACGAGGAGGAGGUUUAUCGAAUUUUCGGCGGAUGCCUCCAAA

Variants of: B1
Test: self-cleavage kobs at 2500 uM GlcN6P; higher = faster cleavage; RNA array
Details: with glucosamine-6-phosphate
Outline: (§1)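 Weighted Michaelis–Menten fits across concentrations supplied kcat and KM, based on kobs from one- or two-exponential decay fits to normalised per-tile medians. The data came from barcoded ribozyme variants transcribed in situ by E. coli RNA polymerase on sequenced MiSeq chips and tracked at 37 °C by a hybridised Cy3 probe. Glucosamine-6-phosphate (40 μM to 10 mM) in HEPES/KCl/Mg(OAc)2 buffer was flowed in.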

Variant | self-cleavage kobs at 2500 uM GlcN6P [s⁻¹]
U30G U46G C58U | < 1e-05
A52G G62A G63U U69G | 0.000139 ± 4.7e-05
C8G A33U U56G G59U | < 1e-05
C10A A12C G51U | < 1e-05
A12U U31G C58G | 7.42e-05 ± 2.7e-05
C34A A48U C68A C71G | < 1e-05
G7A A14C U30A | < 1e-05
A12G C61U C67U C68G | 5.12e-05 ± 2.3e-05
A36C U49G G63C | < 1e-05
G51U U54G C61U | < 1e-05
U30G G41C C58U | < 1e-05
G44C U46G G63A | < 1e-05
C34A G35A C67G C68A C71A | 0.000155 ± 6.4e-05
A39G G44U A53C | 0.000157 ± 4.5e-05
G7A G9U A33C U47G | < 1e-05
G29C U30G A39G | 0.00224 ± 0.00066
A15U A33C A39G C71G | < 1e-05
A6U G13U G44C | < 1e-05
G9U A12C U30C | < 1e-05
G7U A53G U57A | < 1e-05
G13U A53C | 9.93e-05 ± 1.9e-05

Variant | self-cleavage kobs at 2500 uM GlcN6P [s⁻¹]
C11A U54A U55G | 0.000135 ± 4.1e-05
G44A U49A G62U | < 1e-05
G29U G44A U46C U65C | < 1e-05
C16G U30C G32C C58G | 5.09e-05 ± 2.2e-05
A6U C8U C16U U30C G44U U55A C67G | < 1e-05
G13U G35A U57A U65G | < 1e-05
C16U G29C U55A | 0.00365 ± 0.00064
A33C G41C C67G | < 1e-05
A33G G44U G63U | < 1e-05
A39U A42G A64U | 5.16e-05 ± 2.2e-05
A36C G37A A39C C50U A53C | < 1e-05
A6U C8U A52U C67U C71U | < 1e-05
A14U G51U G60U | < 1e-05
A33U G37C C70G | < 1e-05
A12G A33G G41C G66A | < 1e-05
C16U U30C G35C U45A U55G G59U | < 1e-05
U46A A53U C68U | 0.000125 ± 6.3e-05
A6C U55G C71U | 6.13e-05 ± 2e-05
A15U A48C G59A G60U | < 1e-05
G41A C61A G62A | < 1e-05
A15C A64G C68A | < 1e-05

Variant | self-cleavage kobs at 2500 uM GlcN6P [s⁻¹]
C11G U46G G59C U65G | 0.000186 ± 8.3e-05
A12G G43U A48C U69G | < 1e-05
G32A G35C G44C U56G | < 1e-05
A24C G29U A64G | 0.000837 ± 0.00014
U30A U49C G66C | < 1e-05
G32C C58U U65G | < 1e-05
A39C U45A C50G C70G | < 1e-05
A42G G43A G62U | < 1e-05
G9A C61A A64U C67A | < 1e-05
A12G A15U G35A | < 1e-05
A6U U30A A33C U45G C58A | < 1e-05
G7U U55A U56A | < 1e-05
A39U G41C A52U | < 1e-05
C8U A12U C34A | < 1e-05
A14U A48C U69A | < 1e-05
G29U A64G C67G | 6.02e-05 ± 1.3e-05
U30G C58G G60U | < 1e-05
G32U U55C | 0.000307 ± 7.3e-05
A42U G43U U46A C70U | 6.44e-05 ± 2.4e-05
C19A C34A | < 1e-05
G37C U45A G60U A64C | < 1e-05

Variant | self-cleavage kobs at 2500 uM GlcN6P [s⁻¹]
A6C A42U G59U | < 1e-05
G32C G37U C70G | 9.68e-05 ± 4.2e-05
G29C C61G G62A C70G | 0.000307 ± 0.00012
C10G G40C G59U | < 1e-05
A12G C34U A52U | < 1e-05
A6C C8G A14C A48C | < 1e-05
C11U A14C A39U U56C | 7.9e-05 ± 2.4e-05
A12G G62A U69A C70A | 0.000135 ± 5.1e-05
G7C G35C A48C C58U | < 1e-05
A14G A15U U46C | 0.00169 ± 0.00048
C16A G37C U55C | < 1e-05
G13U C34U A39G G62A | < 1e-05
A12U G37A C70G | 0.00013 ± 3.4e-05
A15G A39U G41A | 0.000369 ± 0.0001
C16U A36U G38C G60C | < 1e-05
C8G A36C A53C | < 1e-05
A6C A12G G37A | < 1e-05
G29U G44U G59U C67A | < 1e-05
C10G U47G G51A | < 1e-05

Variants of: B1
Test: self-cleavage kobs at 10000 uM GlcN6P; higher = faster cleavage; RNA array
Details: with glucosamine-6-phosphate
Outline: as §1

Variant | self-cleavage kobs at 10000 uM GlcN6P [s⁻¹]
C34A A48U C68A C71G | < 1e-05
C11A U54A U55G | 0.000124 ± 1.8e-05
G13U G35A U57A U65G | < 1e-05
A36C G37A A39C C50U A53C | < 1e-05
G32U U55C | 0.000584 ± 6.9e-05
A12U G37A C70G | 9.11e-05 ± 2.1e-05
C8G A36C A53C | < 1e-05
